Data as given in the supplement of paper PMC7125110.
± gives the standard error. Fewer inactive variants are shown than the library holds.

B1: glmS ribozyme (parent)
chain: AUAAAAGCGCCAGAACUACAGAAAUGUAGUUGACGAGGAGGAGGUUUAUCGAAUUUUCGGCGGAUGCCUCCAAA

Key:
Conditions in all cases: with glucosamine-6-phosphate
[1] = variants of: B1; experiment: self-cleavage kobs at 640 uM GlcN6P; higher = faster cleavage; RNA array
Procedure, shortened: (§1)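 Tracking of barcoded ribozyme variants used a hybridised Cy3 probe at 37 °C, after in situ transcription by E. coli RNA polymerase on sequenced MiSeq chips. The flowed solution held 40 μM to 10 mM glucosamine-6-phosphate in HEPES/KCl/Mg(OAc)2 buffer, and imaging ran over ~14 h. kobs was taken from exponential decay fits of normalised per-tile medians, and kcat and KM from weighted Michaelis–Menten fits.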

[2] = variants of: B1; experiment: self-cleavage kobs at 2500 uM GlcN6P; higher = faster cleavage; RNA array
Procedure, shortened: as §1

[3] = variants of: B1; experiment: self-cleavage kobs at 10000 uM GlcN6P; higher = faster cleavage; RNA array
Procedure, shortened: as §1

Row | Variant | self-cleavage kobs at 640 uM GlcN6P [1] [s⁻¹] | self-cleavage kobs at 2500 uM GlcN6P [2] [s⁻¹] | self-cleavage kobs at 10000 uM GlcN6P [3] [s⁻¹]
1 | A6C U47C U54G | < 1e-05 |  | 
2 | G38A A48C | < 1e-05 | < 1e-05 | < 1e-05
3 | U46A U49A U56C A64G | < 1e-05 |  | 
4 | C10U A36U G41A | < 1e-05 | < 1e-05 | 
5 | G9A C10A G13C G29C | < 1e-05 | < 1e-05 | 
6 | C16U A36C G38A | < 1e-05 |  | < 1e-05
7 | C10U C58G C67A | 0.000107 ± 3.8e-05 |  | 
8 | C10U G35C G62C | < 1e-05 | < 1e-05 | 
9 | A12C G41A A48C | < 1e-05 |  | 
10 | G13C G37A G62A | < 1e-05 | < 1e-05 | < 1e-05
11 | A14U G29A U47G C50U A53C C70G | 0.00022 ± 4.5e-05 | 0.000165 ± 3.4e-05 | 
12 | U30A U69G C71A | 0.00266 ± 0.00078 |  | 
13 | G9U U30C U65G C70U | < 1e-05 |  | 
14 | A12G A39C A42C | < 1e-05 |  | 
15 | A42G U55G A64G C71G | 0.000116 ± 3.7e-05 | 5.98e-05 ± 2e-05 | 
16 | A36U C50G G66U | 0.00107 ± 0.0003 |  | 

Row | Variant | self-cleavage kobs at 640 uM GlcN6P [1] [s⁻¹] | self-cleavage kobs at 2500 uM GlcN6P [2] [s⁻¹] | self-cleavage kobs at 10000 uM GlcN6P [3] [s⁻¹]
17 | U31G G38A U57C C58U G66C | < 1e-05 |  | 
18 | A48G A52C U57G | < 1e-05 |  | 
19 | A12C A15G A39C | 5.62e-05 ± 1.6e-05 | 0.000163 ± 4.9e-05 | 
20 | U49C C58U G66A | < 1e-05 |  | 
21 | C8G U57G G59A | < 1e-05 | < 1e-05 | 
22 | C16U A33U U49A | < 1e-05 | < 1e-05 | 
23 | A36C G44U C61U C67U | < 1e-05 | < 1e-05 | 
24 | G9U A12G C61A | 3.47e-05 ± 1.5e-05 | 8.52e-05 ± 1.9e-05 | 
25 | G13A A14C U30G | 4.76e-05 ± 1.8e-05 |  | 
26 | A6C A36C U56G | < 1e-05 | < 1e-05 | 
27 | U47A U56A C70U | 0.00117 ± 0.00047 | 0.00157 ± 0.0006 | 
28 | A39U G43C G44A G51U | < 1e-05 | < 1e-05 | 
29 | A14G U30G A64G | 0.00462 ± 0.0017 | 0.00995 ± 0.0044 | 
30 | C16A A39U U54C | 0.000107 ± 2.9e-05 | 0.000434 ± 9.7e-05 | 0.000811 ± 0.00017
31 | G9A G40C G44A G59U | < 1e-05 |  | 
32 | A15U G40C A52U | < 1e-05 |  | 
